Source: PMC8500521

Columns and labels:
[1] = target: 6HB (HR1-linker-HR2) of SARS-CoV-2 fusion protein (SARS-CoV-2) (UniProt P0DTC2); assay: AUC; sedimentation velocity, 50,000 rpm, 20 C, 50 mM NaCl, 25 mM sodium phosphate pH 6.0, no detergent; monomer to tetramer
[2] = target: 6HB (HR1-linker-HR2) of SARS-CoV-2 fusion protein (SARS-CoV-2) (UniProt P0DTC2); assay: SEC-MALS; Superose-12, room temperature, 20 mM sodium phosphate pH 6.0, 30 mM NaCl; injected 65 uM 6HB, 90 uM HR1
[3] = target: HR1 (heptad repeat 1) domain of SARS-CoV-2 spike protein (SARS-CoV-2) (UniProt P0DTC2); assay: AUC; sedimentation velocity, 50,000 rpm, 20 C, 50 mM NaCl, 25 mM sodium phosphate pH 6.0, no detergent; monomer to tetramer

Substance	stoichiometry N [1]	stoichiometry N [2]	stoichiometry N [3]
6HB (HR1-linker-HR2) of SARS-CoV-2 fusion protein (from UniProt P0DTC2 918-965; P0DTC2 1171-1207)	3	3	–
HR1 (heptad repeat 1) domain of SARS-CoV-2 spike protein (from UniProt P0DTC2 918-965) (domain or fragment)	–	–	4
